For series [1], the target named is T1, HPV16 E2 (Human papillomavirus type 16, UniProt P03120 1-365). Briefly: fluorescence polarization; 5 mM Mg2+; FP: 20 mM Tris-HCl pH 7.0, 10 mM NaCl, 0.1 mg/ml BSA, 5 mM MgCl2, 1 mM DTT, room temperature, 60 min; 50 nM probe, 0-200 nM protein. The following applies: protein: recombinant; tags: His (pET28a, Ni-NTA); HA (blots); chain copies: 2; label: 5' Cy3; single strand. For orientation: Fluorescence polarisation rises when a labelled molecule tumbles more slowly, as on binding a larger partner.
T1 sequence (P03120 whole entry): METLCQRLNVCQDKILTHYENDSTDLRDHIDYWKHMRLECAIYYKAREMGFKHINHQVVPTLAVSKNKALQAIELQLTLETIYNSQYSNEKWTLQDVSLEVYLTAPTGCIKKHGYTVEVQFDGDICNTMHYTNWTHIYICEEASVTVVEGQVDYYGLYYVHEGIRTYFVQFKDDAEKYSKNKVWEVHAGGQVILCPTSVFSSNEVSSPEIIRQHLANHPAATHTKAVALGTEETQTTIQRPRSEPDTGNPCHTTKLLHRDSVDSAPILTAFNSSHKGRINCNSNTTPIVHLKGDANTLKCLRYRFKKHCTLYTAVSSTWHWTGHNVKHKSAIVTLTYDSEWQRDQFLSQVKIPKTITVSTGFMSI

Series [2] deals with T2, HPV16 E1 (Human papillomavirus type 16, UniProt P03114 1-649).
T2 sequence: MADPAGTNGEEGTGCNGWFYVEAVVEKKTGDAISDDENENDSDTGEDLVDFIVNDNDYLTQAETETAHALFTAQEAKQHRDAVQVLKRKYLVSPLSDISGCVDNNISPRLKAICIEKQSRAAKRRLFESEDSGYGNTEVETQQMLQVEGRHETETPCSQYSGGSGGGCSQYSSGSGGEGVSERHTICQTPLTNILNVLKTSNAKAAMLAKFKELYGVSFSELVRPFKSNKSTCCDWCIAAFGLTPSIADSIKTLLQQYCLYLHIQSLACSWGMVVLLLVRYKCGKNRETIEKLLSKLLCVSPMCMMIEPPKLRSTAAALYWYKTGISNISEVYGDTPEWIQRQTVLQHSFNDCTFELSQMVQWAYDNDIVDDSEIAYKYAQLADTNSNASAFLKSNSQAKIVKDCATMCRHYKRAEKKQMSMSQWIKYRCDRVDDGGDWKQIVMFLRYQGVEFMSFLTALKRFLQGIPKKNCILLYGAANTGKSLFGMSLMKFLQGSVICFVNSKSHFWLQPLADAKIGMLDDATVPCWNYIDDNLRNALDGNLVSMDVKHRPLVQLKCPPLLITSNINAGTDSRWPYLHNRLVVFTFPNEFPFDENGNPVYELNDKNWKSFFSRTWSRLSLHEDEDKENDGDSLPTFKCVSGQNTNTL
The series is described as above. To be noted: protein: recombinant; tags: His (pET28a, Ni-NTA); Myc (co-IP); chain copies: 6; label: 5' Cy3; single strand.

In series [3] the target is T1, HPV16 E2. Briefly: fluorescence polarization; 5 mM Mg2+; separate experiment alongside E1; FP: 20 mM Tris-HCl pH 7.0, 10 mM NaCl, 0.1 mg/ml BSA, 5 mM MgCl2, 1 mM DTT, room temperature, 60 min; 50 nM probe, 0-200 nM protein. To be noted: protein: recombinant; tags: His (pET28a, Ni-NTA); HA (blots); chain copies: 2; label: 5' Cy3; single strand.

B1: Cy3-labeled 40-nt ssDNA (FP probe) (ssDNA)
DNA: GCGTCTTTACGGGTGCTTAAAAACAAAAACAAAAACAAAA
The Kd is the constant that tells how readily two partners part at equilibrium. As for B1, the Kd in series [1] was found to be 24 ± 8 nM; in series [2], 172 ± 88 nM; in series [3], 28 ± 10 nM.

The record behind these values is publication PMC13284460, “HPV16 E2 protein possesses intrinsic helicase activity and sterically hinders E1 function through direct interaction”.
